For 6 molecules, MFI results are on record in patent publication US20220298235A1 (AKESO BIOPHARMA, published 2022).

Test [1] addresses T1, Human IL12 (His Tag) (human, UniProt P29459 23-219; P29460 23-328).
T1 construct: Bought His-tagged heterodimer
T1 sequence (looked up) 1: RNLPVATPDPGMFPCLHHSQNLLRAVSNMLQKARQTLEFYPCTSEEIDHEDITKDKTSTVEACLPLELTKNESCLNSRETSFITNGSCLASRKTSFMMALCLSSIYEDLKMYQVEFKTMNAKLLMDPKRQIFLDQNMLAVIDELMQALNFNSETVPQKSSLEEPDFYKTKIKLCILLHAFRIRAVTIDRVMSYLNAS
T1 sequence (looked up) 2: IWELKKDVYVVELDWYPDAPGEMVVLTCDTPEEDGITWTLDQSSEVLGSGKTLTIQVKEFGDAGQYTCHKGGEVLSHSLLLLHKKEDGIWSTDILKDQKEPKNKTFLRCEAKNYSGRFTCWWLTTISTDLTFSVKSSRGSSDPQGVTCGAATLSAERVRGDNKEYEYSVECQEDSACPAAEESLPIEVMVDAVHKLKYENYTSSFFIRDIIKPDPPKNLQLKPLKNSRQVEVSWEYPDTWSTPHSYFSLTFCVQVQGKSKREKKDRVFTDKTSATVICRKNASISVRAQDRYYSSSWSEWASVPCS
Description: FACS competition, IL-12-His 20 nM on 293T-IL-12Rβ1&IL-23R cells; antibody 0.01 µg/mL. As to the method: (§1) 200 μL of 1% PBSA was added into each sample, and the mixture was centrifuged at 700×g for 5 min to discard the supernatant. According to experiment design, correspondingly diluted antibody (highest final concentration of 30 μg/mL, 3-fold dilution, 8 concentrations in total) and human IL-12 (Sino Biological, Cat. No.: CT-050-H08H-20) (final concentration of 20 nM) were mixed at a ratio of 1:1, and a blank control was set. The mixture of antibody and human IL12 was incubated on ice for 30 min and then added to the cell precipitate at 100 μL/sample. The resulting mixture was well mixed and incubated on ice for 60 min 200 μL of 1% PBSA was added, and the mixture was centrifuged at 700×g for 5 min to discard the supernatant, and then washed twice. Alexa Fluor® 488 anti-His tag antibody (Biolegend, Cat. No.: 652509) was diluted at a ratio of 1:400 and added to each tube at 100 μL. The mixture was well mixed and incubated on ice for 40 min in the absence of light. 200 μL of 1% PBSA was added, and the mixture was centrifuged at 700×g for 5 min to discard the supernatant, and then washed twice. 1% PBSA was added at 200 μL/tube, and the cells were resuspended and transferred to a flow cytometry tube for testing.

For test [2], the target named is T1, Human IL12 (His Tag). Description: FACS competition, IL-12-His 20 nM on 293T-IL-12Rβ1&IL-23R cells; antibody 0.04 µg/mL. On the procedure: as §1
The target of test [3] is T1, Human IL12 (His Tag). Description: FACS competition, IL-12-His 20 nM on 293T-IL-12Rβ1&IL-23R cells; antibody 0.12 µg/mL. As to the method:
as §1

Test [4] has as its target T1, Human IL12 (His Tag). Description: FACS competition, IL-12-His 20 nM on 293T-IL-12Rβ1&IL-23R cells; antibody 1.11 µg/mL. As to the method:
as §1

For test [5], the target named is T1, Human IL12 (His Tag). Description: FACS competition, IL-12-His 20 nM on 293T-IL-12Rβ1&IL-23R cells; antibody 3.33 µg/mL. As to the method:
as §1

Test [6] has as its target T2, human IL-23 (IL-23-His-Biotin) (human, UniProt Q9NPF7 20-189; P29460 23-328, biotin label, site not stated).
T2 construct: Akesobio lot 20161209; His-tagged and biotinylated
T2 sequence (looked up) 1: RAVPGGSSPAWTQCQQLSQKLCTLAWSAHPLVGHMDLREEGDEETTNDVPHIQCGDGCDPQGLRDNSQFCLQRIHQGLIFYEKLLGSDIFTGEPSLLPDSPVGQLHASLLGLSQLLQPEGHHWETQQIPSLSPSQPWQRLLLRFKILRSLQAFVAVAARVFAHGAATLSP
T2 sequence (looked up) 2: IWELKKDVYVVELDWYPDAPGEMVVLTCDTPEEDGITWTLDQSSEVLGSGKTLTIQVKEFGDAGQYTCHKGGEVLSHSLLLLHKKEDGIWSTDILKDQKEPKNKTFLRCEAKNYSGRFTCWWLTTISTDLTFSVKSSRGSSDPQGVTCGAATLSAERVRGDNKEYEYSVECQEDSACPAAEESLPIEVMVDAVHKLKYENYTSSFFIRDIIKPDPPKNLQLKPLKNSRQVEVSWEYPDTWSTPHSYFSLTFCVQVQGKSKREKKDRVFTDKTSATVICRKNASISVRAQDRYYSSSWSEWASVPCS
Description: FACS competition, IL-23-His-Biotin 2 µg/mL on 293T-IL-12Rβ1&IL-23R cells; antibody 10 µg/mL. On the procedure:
(§2) 200 μL of 1% PBSA was added into each sample, and the mixture was centrifuged at 700×g for 5 min to discard the supernatant. According to experiment design, correspondingly diluted antibody (highest final concentration of 30 μg/mL, 3-fold dilution, 8 concentrations in total) and human IL-23 (IL-23-His-Biotin, Akesobio, 20161209) (final concentration of 2 μg/mL) were mixed at a ratio of 1:1, and a blank control was set. The mixture of antibody and human IL23 was incubated on ice for 30 min and then added to the cell precipitate at 100 μL/sample. The resulting mixture was well mixed and incubated on ice for 60 min. 200 μL of 1% PBSA was added, and the mixture was centrifuged at 700×g for 5 min to discard the supernatant, and then washed twice. FITC Steptavidin (Biolegend, Cat. No.: 405202) was diluted at a ratio of 1:500 and added to each tube at 100 μL. The mixture was well mixed and incubated on ice for 40 min in the absence of light. 200 μL of 1% PBSA was added, and the mixture was centrifuged at 700×g for 5 min to discard the supernatant, and then washed twice. 1% PBSA was added at 200 μL/tube, and the cells were resuspended and transferred to a flow cytometry tube for testing.

In test [7] the target is T2, human IL-23 (IL-23-His-Biotin). Description: FACS competition, IL-23-His-Biotin 2 µg/mL on 293T-IL-12Rβ1&IL-23R cells; antibody 0.37 µg/mL. As to the method: as §2
The target is the same in test [8]. Description: FACS competition, IL-23-His-Biotin 2 µg/mL on 293T-IL-12Rβ1&IL-23R cells; antibody 1.11 µg/mL. On the procedure: as §2
The target is the same in test [9]. Description: FACS competition, IL-23-His-Biotin 2 µg/mL on 293T-IL-12Rβ1&IL-23R cells; antibody 3.33 µg/mL. On the procedure: as §2

B1: ustekinumab (antibody, V domains shown)
VH: EVQLVQSGAEVKKPGESLKISCKGSGYSFTTYWLGWVRQMPGKGLDWIGIMSPVDSDIRYSPSFQGQVTMSVDKSITTAYLQWNSLKASDTAMYYCARRRPGQGYFDFWGQGTLVTVSS
VL: DIQMTQSPSSLSASVGDRVTITCRASQGISSWLAWYQQKPEKAPKSLIYAASSLQSGVPSRFSGSGSGTDFTLTISSLQPEDFATYYCQQYNIYPYTFGQGTKLEIK
As to B1, the MFI in test [1] was found to be 160 MFI; in [2], 150 MFI; in test [3] it was 137 MFI; in test [4] it was 31.9 MFI; in test [5] it was 29.7 MFI; in [6] it was 11.5 MFI. In addition, the MFI in [7] came out at 186 MFI; in test [8], 121 MFI; in test [9] it was 13.8 MFI.

B2: H5L10 (antibody, human IgG1, kappa, V domains shown)
VH: EVQLVQSGAEVKKPGESLKISCQSSGYSFTTYWIGWVRQMPGQGLEWIGIMSPVDSDIRYNPMFRGQVTMSVDKSSSTAYLQWSSLKASDTAMYYCARRRPGQGYFDFWGQGTMVTVSS
VL: EIVLTQSPATLSASPGERATISCRASQSVGSWLAWYQQKPGQAPRSLIYAASNLQSGIPARFSGSGSGTDFTLTISSLEPEDFAVYYCQQYNIYPYTFGQGTRLEIKR
notes: human IgG1 / kappa constant regions; also called humanized antibody H5L10
For B2, the MFI was 163 MFI in test [1]; 154 MFI in test [2]; 151 MFI in test [3]; 44.6 MFI in test [4]; 40.2 MFI in test [5]; 12.7 MFI in test [6]. In addition, the values for the MFI in test [7], in test [8] and in test [9] were 169 MFI, 81.6 MFI and 15.7 MFI, respectively.

B3: H5L9 (antibody, human IgG1, kappa, V domains shown)
VH: EVQLVQSGAEVKKPGESLKISCQSSGYSFTTYWIGWVRQMPGQGLEWIGIMSPVDSDIRYNPMFRGQVTMSVDKSSSTAYLQWSSLKASDTAMYYCARRRPGQGYFDFWGQGTMVTVSS
VL: DIQMTQSPSSLSASVGDRVTITCKASQNVGSWLAWYQQKPGKAPKSLIYSASSRQSGVPSRFSGSGSGTDFTLTISSLQPEDFATYYCQQYDIYPFTFGQGTKLEIKR
notes: human IgG1 (P01857) / kappa (P01834) constant regions; also called humanized antibody H5L9
On to B3, for which the MFI in [1] stood at 169 MFI; in test [2], 158 MFI; in test [3], 160 MFI; in test [4], 157 MFI; in test [5] it was 146 MFI; in test [6], 136 MFI. Also, the MFI turned out to be 206 MFI in test [7], 184 MFI in test [8] and 153 MFI in [9].

B4: H5L12 (antibody, human IgG1, kappa, V domains shown)
VH: EVQLVQSGAEVKKPGESLKISCQSSGYSFTTYWIGWVRQMPGQGLEWIGIMSPVDSDIRYNPMFRGQVTMSVDKSSSTAYLQWSSLKASDTAMYYCARRRPGQGYFDFWGQGTMVTVSS
VL: EIVLTQSPATLSASPGERATISCRASQSVSSWLAWYQQKPGQAPRSLIYAASNRQSGIPARFSGSGSGTDFTLTISSLEPEDFAVYYCQQYNIYPYTFGQGTRLEIKR
notes: human IgG1 / kappa constant regions; also called humanized antibody H5L12
B4: the MFI in test [1] worked out at 161 MFI; in [2], 149 MFI; in test [3], 133 MFI; in [4], 38.5 MFI; in test [5] it was 31.8 MFI; in [6], 12.7 MFI. For the same molecule, the MFI is 177 MFI in test [7], 88.5 MFI in test [8] and 15.8 MFI in test [9].

B5: H5L11 (antibody, human IgG1, kappa, V domains shown)
VH: EVQLVQSGAEVKKPGESLKISCQSSGYSFTTYWIGWVRQMPGQGLEWIGIMSPVDSDIRYNPMFRGQVTMSVDKSSSTAYLQWSSLKASDTAMYYCARRRPGQGYFDFWGQGTMVTVSS
VL: EIVLTQSPATLSASPGERATISCRASQSVSSWLAWYQQKPGQAPRSLIYSASNLQSGIPARFSGSGSGTDFTLTISSLEPEDFAVYYCQQYNIYPYTFGQGTRLEIKR
notes: human IgG1 / kappa constant regions; also called humanized antibody H5L11
On to B5, for which the MFI in [1] was determined as 166 MFI; in [2] it was 151 MFI; in test [3], 145 MFI; in test [4] it was 54.3 MFI; in test [5], 42.2 MFI; in [6] it was 14.5 MFI. The MFI in test [7] came to 179 MFI; in [8], 97.6 MFI; in test [9] it was 20.2 MFI.

B6: H5L14 (antibody, human IgG1, kappa, V domains shown)
VH: EVQLVQSGAEVKKPGESLKISCQSSGYSFTTYWIGWVRQMPGQGLEWIGIMSPVDSDIRYNPMFRGQVTMSVDKSSSTAYLQWSSLKASDTAMYYCARRRPGQGYFDFWGQGTMVTVSS
VL: EIVLTQSPATLSASPGERATISCRASQSVSSWLAWYQQKPGQAPRSLIYAASNLQSGIPARFSGSGSGTDFTLTISSLEPEDFAVYYCQQYNIYPFTFGQGTRLEIKR
notes: human IgG1 / kappa constant regions; also called humanized antibody H5L14
As to B6, the MFI is 149 MFI in test [1]; 155 MFI in test [2]; 146 MFI in [3]; 66 MFI in [4]; 51.9 MFI in test [5]; 16.7 MFI in test [6]. Moreover, the MFI in test [7] was 179 MFI; in test [8] it was 95.6 MFI; in [9] it was 23.6 MFI.
